Target: proliferating cell nuclear antigen (PCNA) (human (endogenous in HAP1)) (UniProt P12004)
Assay: co-IP; Dynabeads Protein A cross-linked (BS3) with α-PCNA (PC10) or α-ENO1 (ab227978); 2 mg HAP1 cytosolic cell extract, 4 °C overnight; washes with 600 mM NaCl; western blot; both directions

UniProt P12004, sequence (P12004 whole entry): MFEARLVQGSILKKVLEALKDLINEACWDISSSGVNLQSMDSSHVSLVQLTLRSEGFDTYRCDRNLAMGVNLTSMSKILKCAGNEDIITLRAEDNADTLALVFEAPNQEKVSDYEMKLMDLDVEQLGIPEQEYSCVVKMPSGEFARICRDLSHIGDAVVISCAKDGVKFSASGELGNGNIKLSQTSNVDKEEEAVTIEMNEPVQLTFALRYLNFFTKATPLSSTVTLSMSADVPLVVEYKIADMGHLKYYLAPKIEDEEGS

Substance: ENO1 F423A (from UniProt P06733 1-434) (enzyme)
- percent reduction of the interaction against WT ENO1: 80 to 90%

From paper PMC9937922
